Data on one variant can be found in IntAct's records for PubMed 22317921.

B1: Zinc transporter SLC39A7 (Homo sapiens), Q92504 (parent)
chain: MARGLGAPHWVAVGLLTWATLGLLVAGLGGHDDLHDDLQEDFHGHSHRHSHEDFHHGHSHAHGHGHTHESIWHGHTHDHDHGHSHEDLHHGHSHGYSHESLYHRGHGHDHEHSHGGYGESGAPGIKQDLDAVTLWAYALGATVLISAAPFFVLFLIPVESNSPRHRSLLQILLSFASGGLLGDAFLHLIPHALEPHSHHTLEQPGHGHSHSGQGPILSVGLWVLSGIVAFLVVEKFVRHVKGGHGHSHGHGHAHSHTRGSHGHGRQERSTKEKQSSEEEEKETRGVQKRRGGSTVPKDGPVRPQNAEEEKRGLDLRVSGYLNLAADLAHNFTDGLAIGASFRGGRGLGILTTMTVLLHEVPHEVGDFAILVQSGCSKKQAMRLQLLTAVGALAGTACALLTEGGAVGSEIAGGAGPGWVLPFTAGGFIYVATVSVLPELLREASPLQSLLEVLGLLGGVIMMVLIAHLE

The assay covers variants of B1. To be noted: with csk21_human CSNK2A1, P68400.
Chain of csk21_human CSNK2A1, P68400 (P68400 whole entry, looked up): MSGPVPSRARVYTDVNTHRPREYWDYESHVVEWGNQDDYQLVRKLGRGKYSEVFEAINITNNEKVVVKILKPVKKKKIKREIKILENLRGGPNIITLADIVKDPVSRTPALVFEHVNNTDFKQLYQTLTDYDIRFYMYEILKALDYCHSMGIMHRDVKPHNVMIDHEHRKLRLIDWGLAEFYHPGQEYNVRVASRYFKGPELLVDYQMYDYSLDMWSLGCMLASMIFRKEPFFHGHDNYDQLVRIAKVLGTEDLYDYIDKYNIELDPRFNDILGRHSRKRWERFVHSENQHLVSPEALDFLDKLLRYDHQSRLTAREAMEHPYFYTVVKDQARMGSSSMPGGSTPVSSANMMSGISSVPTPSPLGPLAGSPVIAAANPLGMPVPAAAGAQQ
For the variant MARGLGAPHWVAVGLLTWATLGLLVAGLGGHDDLHDDLQEDFHGHSHRHSHEDFHHGHSHAHGHGHTHESIWHGHTHDHDHGHSHEDLHHGHSHGYSHESLYHRGHGHDHEHSHGGYGESGAPGIKQDLDAVTLWAYALGATVLISAAPFFVLFLIPVESNSPRHRSLLQILLSFASGGLLGDAFLHLIPHALEPHSHHTLEQPGHGHSHSGQGPILSVGLWVLSGIVAFLVVEKFVRHVKGGHGHSHGHGHAHSHTRGSHGHGRQERSTKEKQAAEEEEKETRGVQKRRGGSTVPKDGPVRPQNAEEEKRGLDLRVSGYLNLAADLAHNFTDGLAIGASFRGGRGLGILTTMTVLLHEVPHEVGDFAILVQSGCSKKQAMRLQLLTAVGALAGTACALLTEGGAVGSEIAGGAGPGWVLPFTAGGFIYVATVSVLPELLREASPLQSLLEVLGLLGGVIMMVLIAHLE [S275A;S276A], the “effect of a mutation on the interaction” value is “decreasing interaction”.
